By EC50 is commonly meant the concentration at which the effect is half-maximal.

The labels stand for the following.
T1: LAG-3 extracellular segment recombinant protein with polyhistidine tag (LAG3-His) (UniProt P18627 23-450, limits assumed)
T1 construct: extracellular domain
T1 sequence (looked up): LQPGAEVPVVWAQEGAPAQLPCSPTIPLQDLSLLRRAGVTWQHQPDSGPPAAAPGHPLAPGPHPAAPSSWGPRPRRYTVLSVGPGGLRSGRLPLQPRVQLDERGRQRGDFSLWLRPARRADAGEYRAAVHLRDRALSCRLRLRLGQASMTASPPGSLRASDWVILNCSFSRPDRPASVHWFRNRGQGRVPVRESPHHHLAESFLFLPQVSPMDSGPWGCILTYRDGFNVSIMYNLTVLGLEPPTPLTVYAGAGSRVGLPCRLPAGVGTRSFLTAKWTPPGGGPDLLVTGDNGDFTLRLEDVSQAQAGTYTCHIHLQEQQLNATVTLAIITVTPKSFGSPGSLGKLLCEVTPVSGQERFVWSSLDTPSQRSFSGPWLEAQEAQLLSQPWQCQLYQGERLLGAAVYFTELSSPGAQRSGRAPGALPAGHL

B1: 609-302-(105CC)-134-IgG4, hexavalent trispecific antibody against PD-1, HER-2 and LAG-3 (antibody)
heavy: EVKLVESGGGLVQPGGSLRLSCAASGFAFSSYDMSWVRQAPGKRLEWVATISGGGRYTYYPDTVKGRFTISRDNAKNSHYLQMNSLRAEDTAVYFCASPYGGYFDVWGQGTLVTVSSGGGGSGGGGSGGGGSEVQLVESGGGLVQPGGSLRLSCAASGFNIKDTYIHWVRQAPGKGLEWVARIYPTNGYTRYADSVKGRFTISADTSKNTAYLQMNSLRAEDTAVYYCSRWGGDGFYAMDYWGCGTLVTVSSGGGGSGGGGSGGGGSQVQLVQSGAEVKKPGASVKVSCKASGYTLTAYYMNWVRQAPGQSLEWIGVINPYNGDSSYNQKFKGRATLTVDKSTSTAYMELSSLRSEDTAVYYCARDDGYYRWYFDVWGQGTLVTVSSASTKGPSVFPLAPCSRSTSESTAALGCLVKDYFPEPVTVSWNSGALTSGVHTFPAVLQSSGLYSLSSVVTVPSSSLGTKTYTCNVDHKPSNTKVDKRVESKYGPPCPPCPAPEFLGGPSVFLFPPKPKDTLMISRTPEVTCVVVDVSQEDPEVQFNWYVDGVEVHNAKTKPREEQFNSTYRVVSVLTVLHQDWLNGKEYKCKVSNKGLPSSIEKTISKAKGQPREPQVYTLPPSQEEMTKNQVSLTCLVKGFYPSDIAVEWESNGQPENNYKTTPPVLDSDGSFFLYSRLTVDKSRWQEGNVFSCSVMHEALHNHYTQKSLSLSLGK
light 1: not shown
light 2: DIQMTQSPSSLSASVGDRVTITCRASQDIGSRLNWLQQKPGKSIKRLIYATSSLESGVPSRFSGSRSGSDYTLTISSLQPEDFATYYCLQSGSSPPTFGQGTKVEIKRTVAAPSVFIFPPSDEQLKSGTASVVCLLNNFYPREAKVQWKVDNALQSGNSQESVTEQDSKDSTYSLSSTLTLSKADYEKHKVYACEVTHQGLSSPVTKSFNRGEC
B2: 609-302-(44CC)-134-IgG4, hexavalent trispecific antibody against PD-1, HER-2 and LAG-3 (antibody)
heavy: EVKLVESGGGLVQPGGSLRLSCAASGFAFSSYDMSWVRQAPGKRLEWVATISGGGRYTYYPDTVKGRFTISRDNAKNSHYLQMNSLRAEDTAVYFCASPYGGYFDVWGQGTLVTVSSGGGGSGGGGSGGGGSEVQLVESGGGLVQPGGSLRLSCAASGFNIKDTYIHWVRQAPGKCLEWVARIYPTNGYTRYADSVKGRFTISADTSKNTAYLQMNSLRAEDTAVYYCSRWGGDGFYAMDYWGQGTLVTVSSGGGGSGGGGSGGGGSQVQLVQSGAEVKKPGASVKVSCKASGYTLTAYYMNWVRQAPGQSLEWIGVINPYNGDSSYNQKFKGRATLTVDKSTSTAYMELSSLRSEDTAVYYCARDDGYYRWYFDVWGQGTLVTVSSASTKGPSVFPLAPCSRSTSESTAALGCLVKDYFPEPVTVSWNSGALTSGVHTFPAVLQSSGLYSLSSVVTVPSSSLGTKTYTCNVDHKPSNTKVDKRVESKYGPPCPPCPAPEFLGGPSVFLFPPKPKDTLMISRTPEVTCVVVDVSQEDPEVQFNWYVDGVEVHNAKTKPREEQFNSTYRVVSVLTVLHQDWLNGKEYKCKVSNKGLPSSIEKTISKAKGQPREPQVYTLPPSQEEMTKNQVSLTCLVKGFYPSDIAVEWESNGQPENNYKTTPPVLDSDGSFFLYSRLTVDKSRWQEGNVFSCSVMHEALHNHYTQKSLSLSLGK
light 1: not shown
light 2: B1 light 2
B3: 609-302-134-IgG4, hexavalent trispecific antibody against PD-1, HER-2 and LAG-3 (antibody)
heavy: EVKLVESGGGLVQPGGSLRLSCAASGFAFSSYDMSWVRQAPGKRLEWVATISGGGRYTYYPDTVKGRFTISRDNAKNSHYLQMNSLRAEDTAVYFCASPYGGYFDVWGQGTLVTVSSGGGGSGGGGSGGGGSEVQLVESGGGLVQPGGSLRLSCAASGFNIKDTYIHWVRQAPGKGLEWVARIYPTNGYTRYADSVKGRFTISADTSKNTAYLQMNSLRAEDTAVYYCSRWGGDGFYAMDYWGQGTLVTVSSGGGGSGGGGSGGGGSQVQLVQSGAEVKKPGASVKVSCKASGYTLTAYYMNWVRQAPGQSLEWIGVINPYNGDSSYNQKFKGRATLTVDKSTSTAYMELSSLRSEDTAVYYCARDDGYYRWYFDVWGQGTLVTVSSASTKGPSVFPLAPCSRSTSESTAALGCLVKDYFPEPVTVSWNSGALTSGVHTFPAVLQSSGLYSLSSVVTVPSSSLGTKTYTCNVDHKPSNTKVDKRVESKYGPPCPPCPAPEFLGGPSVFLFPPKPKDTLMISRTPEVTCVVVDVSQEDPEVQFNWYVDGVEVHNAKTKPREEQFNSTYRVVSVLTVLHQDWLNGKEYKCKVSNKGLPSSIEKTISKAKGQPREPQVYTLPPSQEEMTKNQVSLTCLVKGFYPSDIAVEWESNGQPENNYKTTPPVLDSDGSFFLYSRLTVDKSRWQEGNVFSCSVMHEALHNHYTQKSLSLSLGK
light 1: not shown
light 2: B1 light 2
B4: 134-IgG4 (134 Hu IgG4-C91S), humanized monoclonal antibody against human LAG-3 (antibody, V domains shown)
VH: QVQLVQSGAEVKKPGASVKVSCKASGYTLTAYYMNWVRQAPGQSLEWIGVINPYNGDSSYNQKFKGRATLTVDKSTSTAYMELSSLRSEDTAVYYCARDDGYYRWYFDVWGQGTLVTVSS
VL: DIQMTQSPSSLSASVGDRVTITCRASQDIGSRLNWLQQKPGKSIKRLIYATSSLESGVPSRFSGSRSGSDYTLTISSLQPEDFATYYCLQSGSSPPTFGQGTKVEIKR
notes: also called Anti-LAG-3 antibody

The first assay addresses T2, HER2 extracellular segment recombinant protein with polyhistidine tag (HER2-His) (UniProt P04626 23-652, limits assumed).
T2 construct: extracellular domain
The experiment in a line: ELISA, HER2-His coated at 20 ng/well, HRP anti-human Fc detection. The method, then: (§1) The ELISA detection method used in the following embodiments is described as follows: the corresponding recombinant protein is coated on the microplate, and the microplate is closed with PBST containing 1% bovine serum albumin (PBST is a phosphate buffer containing 0.05% Tween-20). The antibody to be tested was sequentially diluted and then transferred to the above recombinant protein-coated microplates, incubated at room temperature for half an hour and then washed, appropriately diluted HRP (Horseradish Peroxidase)-labeled goat anti-human antibody (Fc specific, purchased from Sigma) was incubated at room temperature for half an hour and then washed, and 100 μl of TMB (3,3′,5,5′-Tetramethylbenzidine) was added to each well.
(§2) Hereby, HER2 extracellular segment recombinant protein (referred to as HER2-His, purchased from Sino Biological Inc.), PD-1 extracellular segment recombinant protein (referred to as PD1-His, purchased from Sino Biological Inc.), and LAG-3 extracellular segment recombinant protein (referred to as LAG3-His, purchased from ACROBiosystems) with polyhistidine tags were coated on microplates at concentrations of 20 ng/well, 20 ng/well, and 10 ng/well, respectively.
For orientation: In an ELISA, binding on a coated surface is turned into a signal by an enzyme label.
In the case of B1, the EC50 worked out at 0.42 nM.

In the case of B2, the EC50 was 0.355 nM.

Another assay deals with T3, PD-1 extracellular segment recombinant protein with polyhistidine tag (PD1-His) (UniProt Q15116 25-170, limits assumed).
T3 construct: extracellular domain
T3 sequence (Q15116 25-170 limits assumed): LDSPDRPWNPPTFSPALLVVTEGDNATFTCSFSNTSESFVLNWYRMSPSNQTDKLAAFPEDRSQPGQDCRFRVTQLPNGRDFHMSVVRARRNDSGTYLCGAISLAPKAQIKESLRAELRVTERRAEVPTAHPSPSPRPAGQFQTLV
The experiment in a line: ELISA, PD1-His coated at 20 ng/well, HRP anti-human Fc detection. On the procedure:
as §1, §2
Consider B3, for which the EC50 came to 0.125 nM.

Regarding B1, the EC50 is 0.104 nM.

With B2, the concentration for a half-maximal effect (EC50) came to 0.0911 nM.

The next assay addresses T1, LAG-3 extracellular segment recombinant …. The experiment in a line: ELISA, LAG3-His coated at 10 ng/well, HRP anti-human Fc detection. The method, then: as §1, §2
Turning to B4, the EC50 was found to be 0.122 nM.

Take B3: the EC50 amounted to 0.26 nM.

In the case of B1, the EC50 stood at 0.286 nM.

For the molecule B2, the EC50 worked out at 0.226 nM.

The record behind these values is patent US20240254232A1 (SUNSHINE GUOJIAN PHARMACEUTICAL SHANGHAI, published 2024).
